Assay results reported in the nanobody polyreactivity screen of Harvey et al. (2022).

Assay: yeast display, Sf9 membrane polyspecificity reagent, FACS + sequencing; frameworks hold sequencing errors
In short: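 A synthetic nanobody library was expressed on Saccharomyces cerevisiae BJ5465 by galactose induction for 36–48 hours. The library was stained for 1 hour at 4 °C with 10% biotinylated, detergent-solubilized Sf9 membrane reagent and enriched with streptavidin microbeads before FACS. Low and high (top ~1%) gates were set on anti-HA fluorescence for expression and streptavidin fluorescence for reagent binding, and each polyreactivity label reflects the gate of origin.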

Row | Sequence | polyreactivity (PSR sort gate)
1 | QVQLVESGGGLVQAGGSLRLSCAASGFIFGEYAMGWYRQAPGKERELVAAITWSGGSTSYADSVKGRFTSSRDNAKNTVYLQMNSLKPEDTAVYYCSARWHVYWGGFYYWGQVTQVTVSS | high polyreactivity
2 | QVQLVESGGGLVQAGGSLRLSCAASGRTFGRYARGWYRQAPGKETELVAAIRSGASTYYADSVKGRFTISRDNAKNTVYLQKNSLKPEDTAVYYCAVDTLQGARVTSPSGDYDYWGQGTQVTVSS | low polyreactivity
3 | QVQLVESGGGLVQAGGSLRLSCAASGSIFRYYAMGWYRPAPGKERELVARISATGASTYYADSVKGRFTISRDNAKNTVYLQMNSLKPEDTAVYYCAAGGRSRWGRYSPYDYWGQGTQVTVSS | high polyreactivity
4 | QVQLVESGGGLVQAGGSLRLSCAASGRTFAFNAMGRYRQAPGKEMELVAAISRSGGSTYYADSVKGRFTISRDNAKNTVYLQMNSLKPEDTAVYYCNAYYNRYPGYDYWGQGTQVTVSS | high polyreactivity
5 | QVQLVESGGGLVQAGGSLRLSCAASGGTFAVNAMGWYRQAPGKEREFVAAISSRGSTYYADSVKGRFTISRDNAKNNVYLQMNSLKPEDTAVYYCAAYRSYWEVYPRMYYWGQGTQVTVSS | high polyreactivity
6 | QVQHVESGGGLVQAGGSLRLSCAASGRTSIPYAMGRYRQAPGKEWQLVAAISYSVGRTYYADSVKGRFTISRDNAKNTVYLQMNSLKPEDTAVYYCAAEYNGVVRDYDYWGQGTQVTVSS | low polyreactivity
7 | QVQLVESGGGLVQAGGSLRLSCAASGRTFQRNAMGWYRQAPGKERELVAAISWRGGSTYYADSVKGRFTISRDNAKNTVYLQMNSLKPEDTAVYYCNTYPSQYLWYDYWGQGTQVTVSS | high polyreactivity
8 | QVQLVESGGGLVQAGGSLRLSCAASGRIFYRNAMGWYRQAPGKERELVAAINWSGGSTYYADSVKGRFTISRDNAKNTVYLQMNSLKPEDTAVYYCATGYRQGEYDYWGQGTQVTVSS | low polyreactivity
9 | QVQLVESGGGLVQAGGSLRLSCAASGRTFVYYAMGWYRQAPGKERELVASISSNGGTYYADSVKGRFTISRDNAKNTVYLQMNSLKPEDTAVYYCNAKRVARYQYGASYNYWGQGTQVTVSS | high polyreactivity
10 | QVQLVESAGGLVQAGGSLRLSCAASGSIFILNAMGWYRQAPGKERELVAAISWSGGRTNYADSVKGRFTISRDNAKNTVYLHMNRLKPEDTAVYSCAARVTPYRGFYYWGQGTQVTVSS | high polyreactivity
11 | QVQLVESGGGLVQAGGSLRLSCAASGLTFYEYAMGWYRQAPGKERELVAAISWRGDSTHYADSVKGRFTISRDNAKNTVYLQMNSLKPEDTAVYYCNTRRLHGWLYGYEYWGQGTQVTVSS | low polyreactivity
12 | QVQLVESGGGLVQAGGSLRLSCAASGRTFIFYAMGWYRQAPGNERELVAAITLRGGGTDYADSVKGRFTISRDNAKYNVYLQMNSQKPEETAVYYCNADGYAVPRWFDPYSYLSDYWGQGTQVTVSS | low polyreactivity
13 | QVQLVESGGGLVQEGGSLRLICAASGFTFGAHGMGWYRQAPGKERELVAANNSRGSRTYYADSGKGRFTISRDNPKNTVFFQMNSLQPDDTAVYYCAADYYAFKFGRFDYWGHGTQVTVSS | high polyreactivity
14 | QVQLVESGGGLVQAGGSLRLSCAASGSIFQWYAMGWYRQAPGKERELVAAISFNGGITYYADSVKGRFTISRDIAKNTVYLQMNSLKPEDTAVYYCATLPGWGYAAYEYWGQGTQVTVSS | low polyreactivity
15 | QVQLVESGGGLVQAGGSLRLSCAASGSSFNINAMGWYRQAPGKERELVAAISWSGDITYYADSVKGRFTISRDNAKNTVYLQLNSLKPEDTAVYYCNTDDPGNYWYAEYDYWGQGTQVTVSS | low polyreactivity
16 | QVQLVESGGGLVQAGGSLRLTCAASGRTFYPYAMGWYRPAPGKERELVAAISSGVRTYYADSVKGRFTISRDNAKNTVYLQMNSLKPDDTAVYYCAARRSIWGQGTQVTVSS | high polyreactivity
17 | QVQLVESGGGLVQAGGSLRLIFAASGRTFVLNAMRWYRQAPGKEREFVAAISWGGVRTYYADSVKGRFTISRDNAKNTVYLQMNSLKPEDTAVYYCATCGSRYRRYDYWGQGTQVTVSS | high polyreactivity
